Results as given in patent US20220290200A1, “GENETICALLY MODIFIED HOST CELLS PRODUCING GLYCOSYLATED CANNABINOIDS” (OCTARINE BIO IVS, priority 2019, published 2022).

Legend:
[1] = In vitro enzymatic cascade converting sucrose and CBD to CBD glycosides; format: biochemical; conditions: enzymes added: GmSuSy
Source text: In the previous examples, in vitro glycosyl transferase assays required the addition of an “activated” sugar (e.g. UDP-glucose), which is typically an extremely expensive reagent, furthermore, other activated sugars e.g. UDP-rhamnose are not available commercially and must be custom synthesized at high-cost and difficulty. […] To facilitate the low-cost production of cannabinoid glycosides not only with glucose, but with alternative sugars, an enzymatic cascade was set up to convert cannabinoids and the simple sugar sucrose into various cannabinoid glycosides. The cascade is divided into 3 steps, in step 1 sucrose and uridine diphosphate (UDP) is converted to UDP-glucose by GmSuSy (SEQ ID NO: 209, 210), additionally generating fructose as a bi-product. In step 2, UDP-glucose is interconverted to alternative UDP-sugars using a range of enzymes. For example, conversion of UDP-glucose to UDP-galactose by BsGa/E, multiple enzymes can also be used to produce UDP-sugars via other UDP-sugar intermediates. For example, conversion of UDP-glucose to UDP-glucuronic acid by AtUGDH1 combined with conversion of UDP-glucuronic acid to UDP-xylose by AtUXS3. In step 3, glycosyl transferases convert the activated sugar and a cannabinoid acceptor to the corresponding cannabinoid glycoside. For example, conversion of UDP-rhamnose and CBD to CBD-1′-O-β-D-rhamnoside (OB13) by Cs73Y (SEQ ID NO: 157, 158).
Enzymes were purified and the in vitro assay performed as described in Example 13 and the reaction mixture set up as shown in table 57. Enzymes and co-factors were added as required for each individual reaction. Samples were extracted and analyzed as stated above.

[2] = In vitro glycosyl transferase performance, purified enzymes, % conversion of cannabinoids to cannabinoid glycosides; format: biochemical; conditions: for Conversion % (CBD to the glycoside): acceptor CBD; for % conversion of CBD to OB9 (CBD-1′-O-β-D-xyloside): Table 26; for % conversion of CBDA to OB31 (CBDA-1′-O-β-D-glucoside): Table 37; for % conversion, 11-nor-9-carboxy-THC to OB41 (11-nor-9-carboxy-THC-1′-O-β-D-glucoside): substrate 11-nor-9-carboxy-THC, product OB41; for % conversion, CBG to OB33 (CBG-1′-O-β-D-glucosyl-3′-O-β-D-glucoside): product OB33; for % conversion, CBN to OB23 (CBN-1′-O-β-D-di-glucoside): substrate CBN, product OB23; for % conversion, THC to OB20 (THC-1′-O-β-D-glucoside): substrate THC, product OB20; for % conversion of CBDV to OB24 (CBDV-1′-O-β-D-glucoside): Table 33
Experimental: For in vitro studies of glycosyl transferase performance in glycosylating cannabinoids, purified Glycosyl transferases were prepared as follows:
5 mL of 2× concentrated LB medium+Ampicillin (50 μg/m L) was inoculated with E. coli XJb (DE3) strains expressing a glycosyl transferase of interest and incubated overnight at 30° C. with shaking. The following day, cell cultures were transferred into 500 mL of 2× concentrated LB medium+Ampicillin (50 μg/mL) and incubated overnight at 30° C. with shaking. The following day, the cell cultures were transferred to 1 L of 2× concentrated LB medium+Ampicillin (50 μg/mL)+3 mM arabinose+0.1 mM IPTG. Cells were incubated for 24 h at 20° C. with shaking. The following day, the cells were collected by centrifugation at 46500×g for 10 mins at 4° C. Cells were resuspended in 20 mL ice-cold GT buffer (50 mM Tris-HCl pH7.4+1 mM phenylmethanesulfonyl fluoride+1 cOmplete™, mini, EDTA-free Protease Inhibitor Cocktail tablet (Roche)). The resuspended material was transferred to a 50 mL falcon tube and kept at −80° C. for at least 15 mins. Falcon tubes were then thawed at room temperature, as the tubes were thawing the following reagents were added; 2.6 mM MgCl2, 1 mM CaCl2, 250 μL of a 1.4 mg/ml DNase solution (Sigma) dissolved in MilliQ water. Tubes were gently inverted to mix then were incubated for 5 mins at 37° C. Binding buffer was then added to the tubes (50 mM Tris-HCl pH7.4, 10 mM imidazole, 500 mM NaCl. 11.25 mL MilliQ water) and the pH adjusted to 7.4 with HCl. The mix was centrifuged at 15550×g for 15 mins at 4° C., the supernatant transferred to a fresh 50 mL falcon tubes and centrifuged again to remove any remaining cellular debris at 48400×g for 20 minutes at 4° C. While the enzyme prep was centrifuging, 3 mL of HIS-Select (available from Sigma P6611) column material was added to a fresh 50 mL tube and washed by adding MilliQ water up to 50 mL, centrifuging at 2000×g for 2 mins and discarding the supernatant. This washing step was repeated. Finally, MilliQ water was added to the HIS-Select material to an approximate 50% volume. Collected supernatant from the centrifuged enzyme preparation was transferred to the tube containing the HIS-Select material through a Miracloth (available from Merck Millipore), and then incubated at 4° C. with gently shaking by inversion for 2 h. After 2 h the mix was centrifuged at 2000×g for 4 minutes at 4° C. and the supernatant discarded. The remaining HIS-Select material was washed twice with 1× binding buffer (50 mM Tris-HCl, 0.5M NaCl, 10 mM Imidazole, pH 7.4) with centrifugation at 2000×g for 4 minutes at 4° C. The HIS-Select material was resuspended in 5 mL 1× binding buffer and transferred to a Poly-Prep®Chromatography Column (available from BioRad, 7311550). The HIS-Select material was kept at 4° C. and washed twice with 1× binding buffer by filling up the column and allowing it to drip through. Finally, purified Glycosyl transferases were eluted from the HIS-Select material by adding 7.5 mL of elution buffer (50 mM Tris-HCl, 500 mM Imidazole, pH7.4) and collecting the flow through. Enzymes were used immediately in in vitro enzyme assays or stored at −20° C. in 50% glycerol until needed.
In vitro conversion of various cannabinoids to cannabinoid glycosides was carried out according to table 21. Alkaline phosphatase was provided by New England Biolabs (M0371S). Cannabinoids were dissolved in methanol. The UDP-sugar (e.g. UDP-glucose) was provided by a commercial supplier (e.g. Sigma) or produced by in vitro enzymatic conversion from a commercially available UDP-sugar as shown in Example 21.
The reaction mixture was scaled up or down as required. The reaction mixture was incubated without shaking at 30° C. for 24 hours. Extraction and analysis were performed as described above for this example. […]

[3] = substrate CBG, glycosyl transferase in vitro

With `C=C(C)C1CCC(C)=CC1c1c(O)cc(CCCCC)cc1OC1OC(C)C(O)C(O)C1O` [OB13, CBD-1′-O-α-L-rhamnoside] the “% Conversion of CBD and sucrose to CBD glycoside” value ([1]; AtRHM2, Cs73Y) was 15.2% and the “Conversion % (CBD to the glycoside)” value ([2]; UDP-Rhamnose, enzyme PL-342(Cp73B_GA)) was 5.7%.

With `C=C(C)[C@@H]1CCC(C)=C[C@H]1c1c(O[C@@H]2OC[C@@H](O)[C@H](O)[C@H]2O)cc(CCCCC)cc1O[C@@H]1OC[C@@H](O)[C@H](O)[C@H]1O` [OB10, CBD-1′-O-β-D-xylosyl-3′-O-β-D-xyloside] the “% Conversion of CBD and sucrose to CBD glycoside” value ([1]; AtUGDH1, AtUXS3, Cs73Y) was 72.3% and the “Conversion % (CBD to the glycoside)” value ([2]; UDP-Xylose, enzyme PL-214(Cs73Y_GA)) was 97.4%.

B1: PL-214(Cs73Y_GA) (protein)
chain: MGSEGRQLHIFMFPFMAHGHMIPIVDMAKLFASRGIKITIVTTPLNSISISKSLHNCSPNSLIQLLILKFPAAEAGLPDGCENADSIPSMDLLPKFFEAVSLLQPPFEEALHNNRPDCLISDMFFPWTNDVADRVGIPRLIFHGTSCFSLCSSEFMRLHKPYQHVSSDTEPFTIPYLPGDIKLTKMKLPIFVRENSENEFSKFITKVKESESFCYGVVVNSFYELEAEYVDCYKDVLGRKTWTIGPLSLTNTKTQEITLRGRESAIDEHECLKWLDSQKPNSVVYVCFGSLAKFNSAQLKEIAIGLEASGKKFIWVVRKGKGEEEEEEQNWLPEGYEERMEGTGLIIRGWAPQVLILDHPSVGGFVTHCGWNSTLEGVAAGVPMVTWPVGAEQFYNEKLVTEVLKTGVGVGVQKWAPGVGDFIESEAVEKAIRRIMEKEGEEMRNRAIELGKKAKWAVGEEGSSYSNLDALIEELKSLAF
In the case of B1, the “% conversion of CBD to OB13 (CBD-1′-O-α-L- rhamnoside)” value ([2]; glycosyl transferase in vitro, Table 25) is reported as 4.4%, the “% conversion of CBD to OB9 (CBD-1′-O-β-D-xyloside)” value ([2]; glycosyl transferase in vitro) is reported as 6.9% and the “% conversion of CBD to OB6 (CBD-1′-O-β-D-glucosyl-3′-O-β-D-glucoside)” value ([2]; glycosyl transferase in vitro, Table 27) is reported as 95.8%. The “% conversion of CBD to OB10 (CBD-1′-O-β-D-xylosyl-3′-O-β-D-xyloside)” value ([2]; glycosyl transferase in vitro, Table 28) was 98.5%, the “% conversion of CBD to OB7 (CBD-1′-O-β-D-tri-glucoside)” value ([2]; glycosyl transferase in vitro, Table 29) was 27.3% and the “% conversion of CBD to OB8 (CBD-1′-O-β-D-glucosyl-3′-O-β-D-di-glucoside)” value ([2]; glycosyl transferase in vitro, Table 30) was 12.3%. For the same molecule, the “% conversion of CBDV to OB25 (CBDV-1′-O-β-O-glucosyl-3′-O-β-D-glucoside)” value ([2]; glycosyl transferase in vitro, Table 34) was 91.0%, the “% conversion of CBDA to OB31 (CBDA-1′-O-β-D-glucoside)” value ([2]; glycosyl transferase in vitro) was 98.6% and the “% conversion, 11-nor-9-carboxy-THC to OB41 (11-nor-9-carboxy-THC-1′-O-β-D-glucoside)” value ([2]; glycosyl transferase in vitro) was 2.0%. For the same molecule, the “% conversion, CBG to OB33 (CBG-1′-O-β-D-glucosyl-3′-O-β-D-glucoside)” value [2, 3] was 100.0%, the “% conversion, CBN to OB23 (CBN-1′-O-β-D-di-glucoside)” value ([2]; glycosyl transferase in vitro) was 98.6% and the “% conversion, THC to OB20 (THC-1′-O-β-D-glucoside)” value ([2]; glycosyl transferase in vitro) was 29.5%.

B2: PL-182(Ha88B_2_GA) (protein)
chain: MESSTVVMYPSPGIGHLVSMVELGKLIHTHHPSLSVIILILTAPYETGATGKYINTVSATTPAITFHHLPAIALPPDFSSEFIDLAFGLPELYNSVVHNTLVAISQKSTIKAVILDFFSNAAFQVSTNLSLPTYYFFTSGTFGLCAFLYLTTLHKTTSKSIKDLNTLLDFPGVPPIHSSHMPTAIFDRESNSYKNFMKTSNNMAKCSGIIVNSFLELEERAVATLRDGKCITDGPTPPIYFIGPLIASGSQVDPNENECLKWLKTQPSKSVVFLCFGSMGVFEKEQLKEIAVGLERSGQRFLWVVRNPPLESSSGAKEFELDDILPEGFLTRTKDKGLVVKNWAPQPAILGHESVGGFVSHCGWNSSLEAVVSGVPMVAWPLYAEQQMNRVYLVEEIKVALWLRMSADGFVGAEAVEETVRKLMEGEEGRAVREQILEMSGGAKAAVEDGGSSRLDFLKLTRPWTDQ
With B2 the “% conversion of CBD to OB1 (CBD-1′-O-β-D-glucoside)” value ([2]; glycosyl transferase in vitro, Table 24) was 50.0%, the “% conversion of CBD to OB9 (CBD-1′-O-β-D-xyloside)” value ([2]; glycosyl transferase in vitro) was 9.6% and the “% conversion of CBDV to OB24 (CBDV-1′-O-β-D-glucoside)” value ([2]; glycosyl transferase in vitro) was 89.0%. For the same molecule, the “% conversion of CBDA to OB31 (CBDA-1′-O-β-D-glucoside)” value ([2]; glycosyl transferase in vitro) was 15.5%, the “% conversion, CBG to OB32 (CBG-1′-O-β-D-glucoside)” value ([2]; substrate CBG, product OB32, glycosyl transferase in vitro) was 82.9% and the “% conversion, CBG to OB33 (CBG-1′-O-β-D-glucosyl-3′-O-β-D-glucoside)” value [2, 3] was 26.5%. The “% conversion, CBN to OB23 (CBN-1′-O-β-D-di-glucoside)” value ([2]; glycosyl transferase in vitro) was 68.0% and the “% conversion, THC to OB20 (THC-1′-O-β-D-glucoside)” value ([2]; glycosyl transferase in vitro) was 80.3%.

B3: PL-28(At72B1_GA) (protein, UniProt Q9M156 1-480, looked up)
UDP-glycosyltransferase 72B1: MEESKTPHVAIIPSPGMGHLIPLVEFAKRLVHLHGLTVTFVIAGEGPPSKAQRTVLDSLPSSISSVFLPPVDLTDLSSSTRIESRISLTVTRSNPELRKVFDSFVEGGRLPTALVVDLFGTDAFDVAVEFHVPPYIFYPTTANVLSFFLHLPKLDETVSCEFRELTEPLMLPGCVPVAGKDFLDPAQDRKDDAYKWLLHNTKRYKEAEGILVNTFFELEPNAIKALQEPGLDKPPVYPVGPLVNIGKQEAKQTEESECLKWLDNQPLGSVLYVSFGSGGTLTCEQLNELALGLADSEQRFLWVIRSPSGIANSSYFDSHSQTDPLTFLPPGFLERTKKRGFVIPFWAPQAQVLAHPSTGGFLTHCGWNSTLESVVSGIPLIAWPLYAEQKMNAVLLSEDIRAALRPRAGDDGLVRREEVARVVKGLMEGEEGKGVRNKMKELKEAACRVLKDDGTSTKALSLVALKWKAHKKELEQNGNH
In the case of B3, the “% conversion of CBDV to OB24 (CBDV-1′-O-β-D-glucoside)” value ([2]; glycosyl transferase in vitro) is reported as 9.9% and the “% conversion, 11-nor-9-carboxy-THC to OB41 (11-nor-9-carboxy-THC-1′-O-β-D-glucoside)” value ([2]; glycosyl transferase in vitro) is reported as 0.9%.
